Experimental data from patent US20190276534A1.

Molecular target: human PD-1 on CHO cells (human) (UniProt Q15116)
Experiment: flow cytometry, CHO cells with human PD-1 incubated with antibody 100 nM, then PD-L2-FITC; competitor PD-L2-FITC

human PD-1 on CHO cells (human), sequence (Q15116 25-288 limits assumed): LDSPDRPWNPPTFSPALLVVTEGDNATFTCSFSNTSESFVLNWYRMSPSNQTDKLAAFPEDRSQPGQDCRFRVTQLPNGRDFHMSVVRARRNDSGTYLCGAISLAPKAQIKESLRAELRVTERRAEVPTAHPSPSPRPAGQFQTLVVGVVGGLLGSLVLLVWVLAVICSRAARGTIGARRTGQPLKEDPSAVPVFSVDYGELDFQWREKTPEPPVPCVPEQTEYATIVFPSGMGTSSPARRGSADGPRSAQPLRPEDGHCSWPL

For control IgG (antibody), the MFI (PD-L2-FITC) in presence of the antibody was 183000.
